Results on 1 molecule are retold here after PMC4113144, “IRF-1 regulates alternative mRNA splicing of carcinoembryonic antigen-related cell adhesion molecule 1 (CEACAM1) in breast epithelial cells generating an immunoreceptor tyrosine-based inhibition motif”.

This data set concerns the target T1, IRF-1 (UniProt P10914 1-325).
T1 sequence: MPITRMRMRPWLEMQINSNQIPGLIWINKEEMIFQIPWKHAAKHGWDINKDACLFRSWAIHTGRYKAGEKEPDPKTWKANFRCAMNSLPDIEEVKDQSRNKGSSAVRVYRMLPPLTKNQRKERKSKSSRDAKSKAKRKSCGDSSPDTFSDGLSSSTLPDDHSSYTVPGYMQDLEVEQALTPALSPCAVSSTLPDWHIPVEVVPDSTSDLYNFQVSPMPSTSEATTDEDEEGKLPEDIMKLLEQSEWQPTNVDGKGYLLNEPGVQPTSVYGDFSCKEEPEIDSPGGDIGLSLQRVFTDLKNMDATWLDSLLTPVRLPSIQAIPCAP
In words: EMSA; 17 pmol IRF-1 : 0.3 pmol DNA lowest ratio; mostly C1 plus C2 complexes; LightShift 1X binding buffer, 5% glycerol, 10 mM MgCl2, 200 ng poly(dI-dC), 0.3 pmol labeled DNA in 10 ul, room temperature 30 min; 6% DNA retardation gel; pH and salt not given. Conditions: protein: commercial; tags: His; label: IRDye 700. (A gel shift assay detects complexes by their altered migration in electrophoresis.)

B1: CEACAM1 ISRE WT 60-mer (dsDNA)
DNA 1: TGGGAAACCAAAATGTAGACAGAAAGGAAAGAGAAAGTAAGGACAAAGGTAGGAATGAGA
DNA 2: TCTCATTCCTACCTTTGTCCTTACTTTCTCTTTCCTTTCTGTCTACATTTTGGTTTCCCA
On to B1, for which the binding result was “binds”.
